First the molecules themselves.
T1: Activin A (UniProt P08476 311-426)
T1 sequence (looked up): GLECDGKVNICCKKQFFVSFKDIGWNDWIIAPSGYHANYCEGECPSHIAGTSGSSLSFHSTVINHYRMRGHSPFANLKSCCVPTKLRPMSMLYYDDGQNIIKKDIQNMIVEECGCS

T2: Activin B (UniProt P09529 293-407)
T2 sequence (looked up): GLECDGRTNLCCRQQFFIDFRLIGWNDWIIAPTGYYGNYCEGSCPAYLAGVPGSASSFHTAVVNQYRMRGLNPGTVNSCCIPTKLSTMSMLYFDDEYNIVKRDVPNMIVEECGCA

B1: ActRIIb/a variant (SEQ ID NO: 149) (receptor)
chain: GRGEAETRECIFYNANWEKDRTNQSGLEPCYGDQDKRRHCFASWKNSSGTIELVKQGCWLDDINCYDRQECVAKKDSPEVYFCCCEGNFCNERFTHLPEAGGPEVTYEPPPTAPT
notes: Engineered extracellular ActRIIb variant; also called extracellular ActRIIb variant; not shown: Carrier and linker
B2: ActRIIb (SEQ ID NO: 74) (receptor)
chain: GRGEAETRECIYYNANWELERTNQSGLERCEGEQDKRLHCYASWRNSSGTIELVKKGCWLDDFNCYDRQECVATEENPQVYFCCCEGNFCNERFTHLPEAGGPEVTYEPPPTAPT
notes: also called Human ActRIIb, extracellular portion; not shown: Carrier and linker
B3: ActRIIa/bmax3 variant (SEQ ID NO: 72) (receptor)
chain: GAILGRSETQECLFYNANWELERTNQTGVERCEGEKDKRLHCYATWRNISGSIEIVKKGCWLDDFNCYDRTDCVETEENPQVYFCCCEGNMCNEKFSYFPEMEVTQPTSNPVTPK
notes: not shown: Carrier and linker
B4: ActRIIa/bΔ9 variant (SEQ ID NO: 58) (receptor)
chain: GAILGRSETQECLFYNANWELDRTNQTGVERCEGEKDKRLHCYATWRNISGSIEIVKKGCWLDDFNCYDRTDCVETKENPQVYFCCCEGNMCNEKFSYFPEMEVTQPTS
notes: Engineered extracellular ActRIIa variant; not shown: Fusion partner and its linker
B5: ActRIIa/bΔ9 min variant (SEQ ID NO: 6) (receptor)
chain: B4 chain with R31P, Y43F, R47K, F65I
notes: as for B4
B6: ActRIIa/b variant (SEQ ID NO: 69) (receptor)
chain: B4 chain with D22E, K77E
notes: Engineered extracellular ActRIIa variant; not shown: Carrier and linker
B7: ActRIIa/bmax1 variant (SEQ ID NO: 70) (receptor)
chain: B4 chain with F14Y, D22E, K36Q, K77E
notes: as for B6
B8: ActRIIa/b+ variant (SEQ ID NO: 150) (receptor)
chain: B4 chain with D22E, K57A, K77E
notes: not shown: Fusion partner and its linker
B9: ActRIIa/bΔ9m4 variant (SEQ ID NO: 44) (receptor)
chain: B4 chain with R31P
notes: as for B6
B10: ActRIIa/bΔ9m2 variant (SEQ ID NO: 38) (receptor)
chain: B4 chain with F65I
notes: as for B4
B11: ActRIIa/bΔ9m3 variant (SEQ ID NO: 41) (receptor)
chain: B4 chain with Y43F
notes: as for B4
B12: ActRIIa/bmax2 variant (SEQ ID NO: 71) (receptor)
chain: GAILGRSETQECLFYNANWELERTNQTGVERCEGEKDKRLHCYATWRNISGSIEIVKKGCWLDDFNCYDRTDCVETEENPQVYFCCCEGNMCNEKFSYFPEMEVTQPTSNP
notes: not shown: Carrier and linker
B13: BMP-9 (ligand, UniProt Q9UK05 320-429, looked up)
chain: SAGAGSHCQKTSLRVNFEDIGWDSWIIAPKEYEAYECKGGCFFPLADDVTPTKHAIVQTLVHLKFPTKVGKACCVPTKLSPISVLYKDDMGVPTLKYHYEGMSVAECGCR
notes: also called bone morphogenetic protein 9
B14: growth differentiation factor 11 (GDF11) (ligand, UniProt O95390 299-407, looked up)
chain: NLGLDCDEHSSESRCCRYPLTVDFEAFGWDWIIAPKRYKANYCSGQCEYMFMQKYPHTHLVQQANPRGSAGPCCTPTKMSPINMLYFNDKQQIIYGKIPGMVVDRCGCS

Where a chain is given by its changes, count along the chain named.

The target of one assay is T1, Activin A. The experiment in a line: SPR (Biacore 3000), receptor captured on chip by anti-mouse antibody, ligand in solution. In general terms: SPR reads the build-up and loss of mass on a sensor chip optically.
Regarding B1, the binding result is on record as “no binding”.

The next assay addresses B14. The assay is described as above.
For the molecule B1, the binding result is listed as “no binding”.

Another assay has as its target T2, Activin B. The description is as above.
Take B1: the binding result was “no binding”.

Another assay concerns the target T1, Activin A. The experiment in a line: SPR (Biacore 3000), receptor captured on chip, ligand in solution.
B2 came in with a dissociation constant Kd of 0.063 nM.
Same read-out and setting: the value for B3 was 0.089 nM; that for B4 was 0.213 nM.
As for B5, binding was put at a Kd of 0.31 nM.
The molecule B6 had a Kd of 0.542 nM.
In turn, B7 yielded a Kd of 0.232 nM.
Same read-out and setting: as for B8, the figure is 0.242 nM; as for B9, 0.375 nM.
Still for that read-out and setting: as for B10, the figure is 0.17 nM.
On to B11, for which the Kd amounted to 0.071 nM.
On the same count and under the same terms, as for B12, the figure is 0.135 nM.

A further assay deals with B2. Described as above.
Molecule B13 yielded a Kd of 0.278 nM.
B14 showed a Kd of 0.115 nM.

The target in a further assay is B13. The assay is described as above.
Molecule B3 gave a Kd of 3.3 nM.
As to B4, binding was characterised by a dissociation constant (Kd) of 10 nM.
B5 had a Kd of 17 nM.
B6 showed a dissociation constant Kd of 4 nM.
Regarding B7, the Kd was determined as 5.6 nM.
The molecule B8 showed a Kd of 26 nM.
In the case of B9, the Kd was in the range of 14 to 20 nM.
Still for that read-out and setting: the value for B10 was 13 to 18 nM.
Turning to B11, binding was characterised by a dissociation constant (Kd) of 1.2 nM.
Molecule B12 registered a Kd of 5 nM.

For the next assay, the target named is B14. The description is as above.
Turning to B3, the Kd was determined as 0.214 nM.
The same measure, in the same setting: as for B4, the figure is 0.115 nM; as for B5, 0.114 nM.
Molecule B6 yielded a Kd of 0.186 nM.
Still for that read-out and setting: the value for B7 was 0.236 nM; that for B9 was 0.394 nM.
Consider B10, for which binding was characterised by a dissociation constant (Kd) of 0.222 nM.
On to B11, for which the Kd came out at 0.117 nM.
B12 yielded a Kd of 0.113 nM.

The next assay concerns the target T2, Activin B. The description is as above.
For the molecule B2, the Kd was 0.023 nM.
The molecule B3 had a Kd of 0.043 nM.
B4 returned a Kd of 0.0123 nM.
With B5, the Kd turned out to be 0.088 nM.
Molecule B6 had a Kd of 0.103 nM.
B7 displayed a dissociation constant (Kd) of 0.097 nM.
The same measure, in the same setting: as for B8, the figure is 0.282 nM; as for B9, 0.254 nM.
In the case of B10, the Kd was found to be 0.104 nM.
In the case of B11, the affinity, expressed as Kd, was 0.0725 nM.
Same read-out and setting: the value for B12 was 0.039 nM.

As a reminder, the Kd is the equilibrium constant for the complex coming apart.

Source of the values: US20190282663A1 (KEROS THERAPEUTICS, published 2019).
